Measured values from patent US20240270846A1 (published 2024).
Substitutions are numbered along the chain they refer to. Names and notes keep the numbering of the source.

B1: CE115HA000/GLS3000 N53Q one-arm antibody (antibody, human IgG1, kappa, L234A L235A, N297A, name in Kabat numbering)
heavy: QVQLVESGGGVVQPGRSLRLSCAASGFTFSNAWMHWVRQAPGKGLEWVAQIKAKSNNYATYYAESVKGRFTISRDDSKNSLYLQMNSLKTEDTAVYYCRYVHYGAYYGVDAWGQGTTVTVSSASTKGPSVFPLAPSSKSTSGGTAALGCLVKDYFPEPVTVSWNSGALTSGVHTFPAVLQSSGLYSLSSVVTVPSSSLGTQTYICNVNHKPSNTKVDKKVEPKSCDKTHTCPPCPAPEAAGGPSVFLFPPKPKDTLMISRTPEVTCVVVDVSHEDPEVKFNWYVDGVEVHNAKTKPREEQYASTYRVVSVLTVLHQDWLNGKEYKCKVSNKALPAPIEKTISKAKGQPREPQVYTLPPSRCELTKNQVSLSCAVKGFYPSDIAVEWESNGQPENNYKTTPPVLDSDGSFFLVSKLTVDKSRWQQGNVFSCSVMHEALHNHYTQKSLSLSPDYKDDDDK
chain: EPKSSDKTHTCPPCPAPELLGGPSVFLFPPKPKDTLMISRTPEVTCVVVDVSHEDPEVKFNWYVDGVEVHNAKTKPREEQYNSTYRVVSVLTVLHQDWLNGKEYKCKVSNKALPAPIEKTISKAKGQPREPQVCTLPPSRDELTKNQVSLWCLVKGFYPSDIAVEWESNGQPENNYKTTPPVLDSDGSFFLYSKLTVDKSRWQQGNVFSCSVMHEALHNRYTQKSLSLSP
light: DIVMTQSPLSLPVTPGEPASISCRSSQSLVHSNRNTYLHWYQQKPGQAPRLLIYKVSQRFSGVPDRFSGSGSGTDFTLKISRVEAEDVGVYYCGQGTQVPYTFGQGTKLEIKRTVAAPSVFIFPPSDEQLKSGTASVVCLLNNFYPREAKVQWKVDNALQSGNSQESVTEQDSKDSTYSLSSTLTLSKADYEKHKVYACEVTHQGLSSPVTKSFNRGEC
notes: one-arm IgG1
B2: CE115HA000/GLS3000 P95G one-arm antibody (antibody, human IgG1, kappa, L234A L235A, N297A, name in Kabat numbering)
heavy: B1 heavy
chain: B1 chain
light: B1 light with Q58N, P100G
notes: one-arm IgG1
B3: CE115HA000/GLS3000 N53S one-arm antibody (antibody, human IgG1, kappa, L234A L235A, N297A, name in Kabat numbering)
heavy: B1 heavy
chain: B1 chain
light: B1 light with Q58S
notes: one-arm IgG1
B4: CE115HA000/GLS3000 S56D one-arm antibody (antibody, human IgG1, kappa, L234A L235A, N297A, name in Kabat numbering)
heavy: B1 heavy
chain: B1 chain
light: B1 light with Q58N, S61D
notes: one-arm IgG1
B5: CE115HA000/GLS3000 R54P one-arm antibody (antibody, human IgG1, kappa, L234A L235A, N297A, name in Kabat numbering)
heavy: B1 heavy
chain: B1 chain
light: B1 light with Q58N, R59P
notes: one-arm IgG1
B6: CE115HA000/GLS3000 S56F one-arm antibody (antibody, human IgG1, kappa, L234A L235A, N297A, name in Kabat numbering)
heavy: B1 heavy
chain: B1 chain
light: B1 light with Q58N, S61F
notes: one-arm IgG1
B7: CE115HA000/GLS3000 S52Y one-arm antibody (antibody, human IgG1, kappa, L234A L235A, N297A, name in Kabat numbering)
heavy: B1 heavy
chain: B1 chain
light: B1 light with S57Y, Q58N
notes: one-arm IgG1
B8: CE115HA000/GLS3000 R54Q one-arm antibody (antibody, human IgG1, kappa, L234A L235A, N297A, name in Kabat numbering)
heavy: B1 heavy
chain: B1 chain
light: B1 light with Q58N, R59Q
notes: one-arm IgG1
B9: CE115HA000/GLS3000 P95A one-arm antibody (antibody, human IgG1, kappa, L234A L235A, N297A, name in Kabat numbering)
heavy: B1 heavy
chain: B1 chain
light: B1 light with Q58N, P100A
notes: one-arm IgG1
B10: CE115HA000/GLS3000 Q93E one-arm antibody (antibody, human IgG1, kappa, L234A L235A, N297A, name in Kabat numbering)
heavy: B1 heavy
chain: B1 chain
light: B1 light with Q58N, Q98E
notes: one-arm IgG1
B11: CE115HA000/GLS3000 P95L one-arm antibody (antibody, human IgG1, kappa, L234A L235A, N297A, name in Kabat numbering)
heavy: B1 heavy
chain: B1 chain
light: B1 light with Q58N, P100L
notes: one-arm IgG1
B12: CE115HA000/GLS3000 S56E one-arm antibody (antibody, human IgG1, kappa, L234A L235A, N297A, name in Kabat numbering)
heavy: B1 heavy
chain: B1 chain
light: B1 light with Q58N, S61E
notes: one-arm IgG1
B13: CE115HA000/GLS3000 R54E one-arm antibody (antibody, human IgG1, kappa, L234A L235A, N297A, name in Kabat numbering)
heavy: B1 heavy
chain: B1 chain
light: B1 light with Q58N, R59E
notes: one-arm IgG1
B14: CE115HA000/GLS3000 R54T one-arm antibody (antibody, human IgG1, kappa, L234A L235A, N297A, name in Kabat numbering)
heavy: B1 heavy
chain: B1 chain
light: B1 light with Q58N, R59T
notes: one-arm IgG1
B15: CE115HA000/GLS3000 P95E one-arm antibody (antibody, human IgG1, kappa, L234A L235A, N297A, name in Kabat numbering)
heavy: B1 heavy
chain: B1 chain
light: B1 light with Q58N, P100E
notes: one-arm IgG1
B16: CE115HA000/GLS3000 S52Q one-arm antibody (antibody, human IgG1, kappa, L234A L235A, N297A, name in Kabat numbering)
heavy: B1 heavy
chain: B1 chain
light: B1 light with S57Q, Q58N
notes: one-arm IgG1
B17: CE115HA000/GLS3000 Q90A one-arm antibody (antibody, human IgG1, kappa, L234A L235A, N297A, name in Kabat numbering)
heavy: B1 heavy
chain: B1 chain
light: B1 light with Q58N, Q95A
notes: one-arm IgG1
B18: CE115HA000/GLS3000 N53R one-arm antibody (antibody, human IgG1, kappa, L234A L235A, N297A, name in Kabat numbering)
heavy: B1 heavy
chain: B1 chain
light: B1 light with Q58R
notes: one-arm IgG1
B19: CE115HA000/GLS3000 Q93D one-arm antibody (antibody, human IgG1, kappa, L234A L235A, N297A, name in Kabat numbering)
heavy: B1 heavy
chain: B1 chain
light: B1 light with Q58N, Q98D
notes: one-arm IgG1
B20: CE115HA000/GLS3000 S56G one-arm antibody (antibody, human IgG1, kappa, L234A L235A, N297A, name in Kabat numbering)
heavy: B1 heavy
chain: B1 chain
light: B1 light with Q58N, S61G
notes: one-arm IgG1
B21: CE115HA000/GLS3000 N53W one-arm antibody (antibody, human IgG1, kappa, L234A L235A, N297A, name in Kabat numbering)
heavy: B1 heavy
chain: B1 chain
light: B1 light with Q58W
notes: one-arm IgG1
B22: CE115HA000/GLS3000 R54W one-arm antibody (antibody, human IgG1, kappa, L234A L235A, N297A, name in Kabat numbering)
heavy: B1 heavy
chain: B1 chain
light: B1 light with Q58N, R59W
notes: one-arm IgG1
B23: CE115HA000/GLS3000 N53T one-arm antibody (antibody, human IgG1, kappa, L234A L235A, N297A, name in Kabat numbering)
heavy: B1 heavy
chain: B1 chain
light: B1 light with Q58T
notes: one-arm IgG1
B24: CE115HA000/GLS3000 N53Y one-arm antibody (antibody, human IgG1, kappa, L234A L235A, N297A, name in Kabat numbering)
heavy: B1 heavy
chain: B1 chain
light: B1 light with Q58Y
notes: one-arm IgG1
B25: CE115HA000/GLS3000 S52D one-arm antibody (antibody, human IgG1, kappa, L234A L235A, N297A, name in Kabat numbering)
heavy: B1 heavy
chain: B1 chain
light: B1 light with S57D, Q58N
notes: one-arm IgG1
B26: CE115HA000/GLS3000 P95D one-arm antibody (antibody, human IgG1, kappa, L234A L235A, N297A, name in Kabat numbering)
heavy: B1 heavy
chain: B1 chain
light: B1 light with Q58N, P100D
notes: one-arm IgG1
B27: CE115HA000/GLS3000 Q90D one-arm antibody (antibody, human IgG1, kappa, L234A L235A, N297A, name in Kabat numbering)
heavy: B1 heavy
chain: B1 chain
light: B1 light with Q58N, Q95D
notes: one-arm IgG1
B28: CE115HA000/GLS3000 S56H one-arm antibody (antibody, human IgG1, kappa, L234A L235A, N297A, name in Kabat numbering)
heavy: B1 heavy
chain: B1 chain
light: B1 light with Q58N, S61H
notes: one-arm IgG1
B29: CE115HA000/GLS3000 R54D one-arm antibody (antibody, human IgG1, kappa, L234A L235A, N297A, name in Kabat numbering)
heavy: B1 heavy
chain: B1 chain
light: B1 light with Q58N, R59D
notes: one-arm IgG1
B30: CE115HA000/GLS3000 N53V one-arm antibody (antibody, human IgG1, kappa, L234A L235A, N297A, name in Kabat numbering)
heavy: B1 heavy
chain: B1 chain
light: B1 light with Q58V
notes: one-arm IgG1
B31: CE115HA000/GLS3000 R54S one-arm antibody (antibody, human IgG1, kappa, L234A L235A, N297A, name in Kabat numbering)
heavy: B1 heavy
chain: B1 chain
light: B1 light with Q58N, R59S
notes: one-arm IgG1
B32: CE115HA000/GLS3000 S52P one-arm antibody (antibody, human IgG1, kappa, L234A L235A, N297A, name in Kabat numbering)
heavy: B1 heavy
chain: B1 chain
light: B1 light with S57P, Q58N
notes: one-arm IgG1
B33: CE115HA000/GLS3000 Q93A one-arm antibody (antibody, human IgG1, kappa, L234A L235A, N297A, name in Kabat numbering)
heavy: B1 heavy
chain: B1 chain
light: B1 light with Q58N, Q98A
notes: one-arm IgG1
B34: CE115HA000/GLS3000 R54G one-arm antibody (antibody, human IgG1, kappa, L234A L235A, N297A, name in Kabat numbering)
heavy: B1 heavy
chain: B1 chain
light: B1 light with Q58N, R59G
notes: one-arm IgG1
B35: CE115HA000/GLS3000 Q90E one-arm antibody (antibody, human IgG1, kappa, L234A L235A, N297A, name in Kabat numbering)
heavy: B1 heavy
chain: B1 chain
light: B1 light with Q58N, Q95E
notes: one-arm IgG1

What follows are binders tested against T1, CD3 epsilon homodimer protein (UniProt P07766 23-126) (assay: SPR (Biacore T200), CD3e homodimer on CM4 chip, antibody as analyte; KD ratio vs unaltered GLS3000;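 note: CD3 epsilon homodimer amine-coupled to the sensor surface, antibodies injected as analyte at 25 °C with HBS-EP+ running buffer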).
T1 construct: also called CD3 (CD3 epsilon)
T1 sequence (P07766 23-126): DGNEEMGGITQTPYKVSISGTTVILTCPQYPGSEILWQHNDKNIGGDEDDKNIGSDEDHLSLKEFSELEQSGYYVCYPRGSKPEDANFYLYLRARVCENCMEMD
Protocol: An appropriate amount of CD3 epsilon homodimer protein was immobilized onto Sensor chip CM4 (GE Healthcare Japan Corp.) by the amine coupling method. Then, the antibody having an appropriate concentration was injected thereto as an analyte and allowed to interact with the CD3 epsilon homodimer protein on the sensor chip. Then, the sensor chip was regenerated by the injection of 10 mmol/L glycine-HCl (pH 1.5). The assay was conducted at 25 degrees C., and HBS-EP+(GE Healthcare Japan Corp.) was used as a running buffer. […] Each parameter was calculated using Biacore T200 Evaluation Software (GE Healthcare Japan Corp.).
Specifically, when the amount of the GLS3000-containing antibody bound was defined as X and the amount of the L chain one-amino acid altered form bound was defined as Y, a value of Z (ratio of amounts bound)=Y/X was used.

Row | Binder | KD ratio to GLS3000
1 | B1 | 1.28 ratio
2 | B2 | 1.94 ratio
3 | B3 | 0.88 ratio
4 | B4 | 1.11 ratio
5 | B5 | 1.05 ratio
6 | B6 | 1.12 ratio
7 | B7 | 1.02 ratio
8 | B8 | 1.04 ratio
9 | B9 | 0.87 ratio
10 | B10 | 1.05 ratio
11 | B11 | 11.7 ratio
12 | B12 | 0.91 ratio
13 | B13 | 0.84 ratio
14 | B14 | 0.89 ratio
15 | B15 | 1.01 ratio
16 | B16 | 1.01 ratio
17 | B17 | 0.89 ratio
18 | B18 | 1.56 ratio

Row | Binder | KD ratio to GLS3000
19 | B19 | 0.72 ratio
20 | B20 | 0.99 ratio
21 | B21 | 1.01 ratio
22 | B22 | 0.65 ratio
23 | B23 | 2.68 ratio
24 | B24 | 0.99 ratio
25 | B25 | 0.94 ratio
26 | B26 | 2.37 ratio
27 | B27 | 11.1 ratio
28 | B28 | 0.96 ratio
29 | B29 | 1.8 ratio
30 | B30 | 2.14 ratio
31 | B31 | 0.78 ratio
32 | B32 | 7.38 ratio
33 | B33 | 0.65 ratio
34 | B34 | 0.88 ratio
35 | B35 | 0.91 ratio
